Target: EGFRvIII (UniProt P00533)
Assay: BLI
Details: inverted dT at the end, BLI: association 200 s, dissociation 400 s, PBS + 0.05% Tween-20 (stated for NOTA-aptamer dissociation), protein loading at room temperature, cells: DPBS …

Row | Sequence | Kd (protein on Ni-NTA probe, 125-500 nM aptamer, PBS 0.05% Tween-20, 2Nap-dU written as T at 5,9,13,18,19,20,25,26,27,35,42, 5'-amine conjugated to p-SCN-Bn-NOTA) [nM] | Kd (P = 2Nap-dU (5-[N-(2-naphthylmethyl)carboxamide]-2'-deoxyuridine), written as T at 5,9,13,18,19,20,25,26,27,35,42, T1 printed as T) [nM]
1 | TGAGTAAGTGAGTACCGTTTGCGATTTGGAGAACTACGCAATCA [NOTA-EGFRvIII aptamer] | 2.05 | –
2 | TGAGTAAGTGAGTACCGTTTGCGATTTGGAGAACTACGCAATCA [EGFRvIII aptamer (44 nt)] | – | 0.87
